# Source: the nanobody polyreactivity screen of Harvey et al. (2022)
# Assay: yeast display, Sf9 membrane polyspecificity reagent, FACS + sequencing; frameworks hold sequencing errors
# How it was run: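 A nanobody's polyreactivity label depends on the gate it was sorted from. Yeast display cells were stained with 10% biotinylated, detergent-solubilized Sf9 membrane reagent for 1 hour at 4 °C, enriched on streptavidin microbeads and sorted by FACS. The low and high (top ~1%) gates were set on anti-HA fluorescence for expression and streptavidin fluorescence for reagent binding.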
row,Sequence,polyreactivity (PSR sort gate)
1,QVQLVESGGGLVQAGGSLRLSCAASGGIFDTNAMGWSRQAPGKERELVAAIRGSGGTYYADSVKGRFTISRDNAKNTVYLQMNSLKPEDTAVYYCATRTYRVLAGSAWYHYNYWGQGTQVTVSS,high polyreactivity
2,QVQLVESGGGLVQAAGSLRVSCAASGSTFSWNPMGWSIQAPGKERELVAASTSGGRTYYADSVKGRFTISRDNAKNTVYLQMNSLKPADTAVYYCAAYATIYRDMGYWGHGTQVTVSS,high polyreactivity
3,QVQLVESGGGLVLAGGSLRLSCAASGFIFDIYAMGCYRQAPGKERELVASITWDDGSTYYADSVKGRFTISRDNAKNTVYLQMNSLNPEDTAVYYCAADFEAGGYSLDYWGHGTQVTVSS,low polyreactivity
4,QVQLVESGGGLVQAGGSLRLSCAASGSIFKYYAMGWYRQAPGKERELVAAITTTGGITYYADSVNGRFTISRDNAKNTDYLQMISLKPEDTAVYYCNAYYPIRSSPYGYYYCGQGTQVTVSS,high polyreactivity
5,QVQLVESGGCLVPAGGSLRLSGAASGSTYHFYAMGWYRHAQGKERELVASITSRGGNTHYADSVKGRFRISRDNAKNTVYFQMNSLKPEVTAVYSCAASGGWYGTYDYWGQGTQVTVSS,low polyreactivity
6,QVQLVESAGGLVQAGGSLSIICAASGFTFSPYTMGWYRKAPGKERELVAAINRRGVSTYYADSVKGRFTISRDNEKNTVYLQMNSLKPEDTAVYYCAAEWYYQYSIYRYGYWGQGTQVTVSS,low polyreactivity
7,QVQLVESGGGLVQAGGSLRLSCAASGRTFDRYDMGWYRQAPGKERELVATISSSGGSTYYADSVKGRFTISRDNAKNTVYLQMNSLKPEDTAVYYCAADPSGDYWGQGTQVTVSS,low polyreactivity
8,QVQLVESGGGLVQAGGSLRLSCAASGIIFRDYGMGWYRQAPGKESEIVATITYSGGGTYYADSVKGRFTISRDNANNTVYLQMNSLKPEDTAVYYCAAYPFYYDLAYDYWGQGTQVTVSS,low polyreactivity
9,QVQLVESGGGLVQAGGSLRLSCAATGGTFYVYAMGWYRQAPGKERELVARITWRGGRTYYADSVKGRFTISRDNAKNTVYLQMYSLKPEDTAVYYCNAEQYSQFDYWGQGTQVTVSS,high polyreactivity
10,QVQLVESGGGLVQAGGSLRLSCAASGSTFIYYAMVWYRQAPGKERELVASLSRSGGSTYYADSVKGRFTISRDNAKNTVYLQMNSLKPEDTAVYYCARAYRSSFNYWGQGTQVTVSS,high polyreactivity
11,QVQLVESGGGLVQAGGSLRLSCAASGSTFAYYAMGWYRQAPGKERELVAAISWRGGSTYYADSVKGRFTISRDNAKNTVYLHMNSLKPEDTAVYYCATLSAWKASSYDYWGQGTQVTVSS,high polyreactivity
12,QVQLVESGGGLVQAGGSLRLSCAASGSIFADNAKGWYRQAPGKEMDLVAAITWSGGSTYYADSVKGRFTISRDNAKNTVYLQMNSLKPEDTAVYYCNADDAVEYSYGGGTEFYYWGQGTQVTVSS,low polyreactivity
13,QVQLVESGGGLVQAGGSLRLSCAASGSIFDLYAMGWYRQAPGKERELVAAINWTGGSTYYADSVKGRFTISRDNAKNTVYLQMNSLKPEDTAVYYCAASYYYGTEHYDYWGQGTQVTVSS,low polyreactivity
14,QVQLVESGGGLVQAGGSLRLSCAASGSIFDVNAMGWYRQAPGKEREFVASITWSGGSTYYADSVKGRFTISRDNAKNTVYLQMNSLKPEDTAVYYCAARPVWVSGYLQYVYCGQGTQVTVSS,low polyreactivity
15,QVQLVESGGGLVQAGGRIRLSCAASGSTYGLNAMGWYRQDPGNEREMVAAITFISGSTNYADSVKGRFSISRDNAKNTVYLQMNSLKPEDTAVYYCAGDSVYYAGYDDDYWGLGTQVTVSS,low polyreactivity
16,QVQLVESGGGLVQAGGSLRLSCAASGSIFVPYAMGWYRQAPGKERELVAAISSSTASTYYADSVKGRFTISRDNAKNTVYLQMNRLKPEETAVYYFNAEQWDYGVRVAHYDYWGQGTQVTVSS,low polyreactivity
17,QVQLVESGGGLVQAGGSLSLSCAASGRIFDYYAMVWYRQAPGKERDLVAAISTSGGSTYYADSVKGRFTISRDNAKNTVYLQMISLKPVDTAVYYCAKDITVTYPGLDYDYWGQGTQVSVSS,low polyreactivity
18,QVQLVESGGGLVQAGGSLRLTCAASGSTSEVYAMGWYRQAPGKEREFVAAISRSGGTTYYADSVKGRFTISRDNAKNTVYLQMKSVKPEDTAVYYCNARGYSGVSGKYGYWGQGTQVTVSS,high polyreactivity
19,QVQLVESGGGLVQAGGSLRLSCAASGITFVLYAMGWYRQAPGKERELVAAITWRGGSTYYADSVKGRFTISRDNAKNTVYLQMNSLKPEDTAVYYCAAVQFTSYRQGDYWGQGTQVTVSS,low polyreactivity
20,QLQLVESGGGLVQAGGSLRLSSAASGFIFDGNAMGGYRQAPGKERELVAAISWDGGTYYADSVKGRFTISRDNAKNTVYLQMNSLKPEDTAVDYCPAEQTQLYSFGWDEYWGQGTQVTVSS,low polyreactivity
21,QVQLVESGGGLVQAGGSLRLSCAASGSICVQYAMGRSRQAPGKERELVAAISNSGGSTYYADSVKGRFTISRDTAKNTVYLQMNSLKPEDTAVYYCAARYHTRGAGRPYYYWGQGTQVTVSS,high polyreactivity
22,QVQLVESGGGIVKAAGSLRLSCAASGSTFKKYAMGWDRQAPRKERELVASISSGGGTYYADSVKGRFTISRDNAKNTVYVQMNSLKPEDTAVYYCAARYHYAKSPYRYYYWGQGTQVTVSS,high polyreactivity

row,Sequence,polyreactivity (PSR sort gate)
1,QVQLVESGGGLVQAGGSLRLSCAASGLILQYYVMGWYRQAPGKERELVAAITRSGGGTYYADSVKGRFTISRDNAKNTVYLQMNSLKPEDTAVYYCADRQPYRFHGSEYDYWGQGTQVNVSS,high polyreactivity
2,QVQLVESGGGLVQAGGSLRLSCAASGSTLRRYAMGWYRQAPGKERELVAAITSRGTDTYYADSVKGRFTISRDNAKNTVYLQMNSLKPEDTAVYYCANRRGYVYYPGYDYWGQGTQVTVSS,high polyreactivity
3,QVQLVESGGGLVQAGGSLRLSCASSGRIFNRYAMGWYRQAPGKERELVAAISSRGGSTYYADSVKGRFTISRDNAKNTVYLPMNSLKPEDTAVYYCAASAQKASYDWRYDYWGQGTQVTVSS,high polyreactivity
4,QVQLVESGGGLVQAGGSLRLSCAASGSTSSYNAMGWYRQAPGKERELVAAINSGDNTYYADSVKGRFTISRDNAKNTVYLQMNSLKPDDTAVYYCNKVTRNFNYDYWGQGTQVTVSS,low polyreactivity
5,QVQLVESGGGLVQAGGSLRLSCAASGSIFQYNAMGWYRQAPGKERELVAAISSRGGITYYADSVKGRFTISRDNAQNTVYLQMNSLKPEDTAVYYCAAEAYYSEVRWYEYWGQGTQVTVSS,high polyreactivity
6,QVQLVESGAGLVQAGGSLRLSCADSVNTFWYYTMGWYRQAPGKERELVAAISRGGRPYYADSVKGRFTISRDNAKNTVYLQMNSLKPEDTAVYNCNKPAPYTGSFDRSGIFDYWGQGTQVTVSS,high polyreactivity
7,QVQHDESGGCLVQAGGSLRLSCAASGITFILYDMGWYREAPGKVRELVASITSGGSTDYADSVKGRFTISRDNAKNTVYLQMNSLKPEDTAVYYCAARYVYPYWYGDYYWGQGTQVTVSS,low polyreactivity
8,QVQLVESGGGLVQAGGSLRLSWAASGGTFVPYAMGWYRQAPGTERELVARISKRGGTTYYADSVKGRFTISRDNAKYTVYLQMNSLKPEDTAVYYCAAVLPARGYYWGQGTQVTVSS,high polyreactivity
9,QVQLQESGGGLVQAGGSLRLSCAASGSIFEELDMGWYRQAPGKEREFVAAIGTGSTTYYADSVKGRFTISRDNAKNTVYLQMNSLKPEDTAVYYCAVTYSVYLPFRYWGQGTQVTVSS,high polyreactivity
10,QVQLVESGGGLLQAGGSLRLSCAASGRIFNINAMGWYRQAPGKERELVAAISSGDSTYYADSVKGRFTISRDNAKNTVYLQMNSLKPEDSAVDYCNKDLYIWGHGTQVTVSS,low polyreactivity
11,QVQLVESGGGLVQAGGILSLSSAAYGRISVFYTMGWYIQAPGKERELVAVIRTAGGRTKYADSVKGRFTISRDNAKNTVYLQMNSLKPEDTAVYYCADRVVRYGYKYYYWGQGTQVTVSS,low polyreactivity
12,QVQLVESGGGLVQAGGSLRLSCAASGSTFTYNAMGWYRQAPGKERELVASISSGTTTYYADSVKGRFTISRDNAKNTVYLQMNSLKPEDTAVYYCAALVSPDRGYYSYWYIYDYWGQGTQVTVSS,low polyreactivity
13,QVQLVESGGCLVQAGGRLRLSCAASGSTFGRNAMGWYRQAPGKERELVAAISTSDGRTYYADSVKGRFTISRDNAKNTVYLQMNSLKPEDTAVYYCAADGETLPPRILGESEGDYWGQGTQVTVSS,low polyreactivity
14,QVQLVESGGGFVQAGGSLRLSCAASGFIFGYYAMGWYRQAPGKERELVAAITRSGSRTYYADSVKGRFTISRDNAKNTVYLQMNSLKPEDTAVYYFAKRRYWYYRSRDWFVSGVYWGQGTQVTVSS,low polyreactivity
15,QVQLVESGGGLVQAGGSLRLSCAATGFTFYTYAMGWYRQATGKETELVADISSGGSTNYADSVKGRFRISRDNAKNTVYLQMNSLIPEDTAVYYCSDDYYFLDWYDYWGQGTQVTVSS,low polyreactivity
16,QVQLVESGGGLVQAGGSLRLSCAASGYTFTTYAMGWYRQAPGKEREFVASIRWRGGNTYYADSVKGRFTISRDNAKNTVYLQMNSQKREDTAVYYCARRVDYISSKYGYWGQGTQVTVSS,high polyreactivity
17,QVQLVESGGGLVQAGGSLRLSCAASGRTFNVNVMGWYRQAPGKERELVAAIRYNGGSTYADSVKGRFTISRDNAKNTVYLQMNSLKPEDTAVYYCNADTFFPFEHGMDYWGQGTQVTVSS,low polyreactivity
18,QVQLEDSGGGLDQAGVSLRLSCAASGSTFLLYAMVGYRQAPGKERELVAAISRSSTSTYYADSVKGRFTISRDNAKNTVYLQMNSLKPEDTAVYYCAAVVTVQYSQPYDHWGQGTQVTVSS,high polyreactivity
19,QVQLEESGGGLYQAGGSLRLSCAASGSILDFNAMVWYRQAPGKEMELVASIRWSGGSTYYADSVKGRFTISRDYAKNTVYFQMNSLKPEDTAVYYCAAVTYGYYRSRYSSIQPNEYDYLGQGTQVTVSS,high polyreactivity
20,QVQLVESGGRLVQAGGSLRLSCAASGFTFPNYAMGWYRQAPGKERELVAAISWSGTSTYYADSVKGRFTISRDNAKNTVYLQMNSLKPEDTAVYDCAAKYQRGGYYESYWLRTGYYWGQGTQVTVSS,high polyreactivity
21,QVQLVESGGGLVQAGGSLRLSCAASGRTFRSYTRGWYRQAAGKERELVAAINRGDRTYADSVKGRFTISRDNAKNTVYLQMNSLKPEDTAVYYCAARYYGGYGKQPRARYGYWGQGTQVTVSS,high polyreactivity
